Reference: the supplement of paper PMC9732359
± gives the uncertainty stated by the source.

Experiment: protein stability index of a GFP-peptide fusion (yeast GPS) (PSI 1-4); higher = more stable; sorted into four equal gates, so the index is relative within each strain
Procedure, shortened: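 Mid-log yeast cultures in leucine-free medium, carrying a pooled plasmid library, were sorted into four equal gates by their GFP/Cherry fluorescence ratio. Each plasmid expressed Cherry along with GFP fused upstream of a tiled 17-residue yeast protein peptide. Plasmids recovered from each gate were PCR-amplified and Illumina-sequenced, with reads assigned to strains by barcodes. The protein stability index was obtained by summing each gate's read frequency weighted by its gate number.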

Row | Sequence | protein stability index (doa10∆) | protein stability index (pdr5∆) | protein stability index (san1∆) | protein stability index (ubr1∆)
1 | FSQKEMAFNLLGLLTPE [FAS2] | 2.52 ± 0.077 | 2.32 ± 0.072 | 2.18 ± 0.12 | 2.42 ± 0.064
2 | FSWISVVNDLVGEKLVV [SIR3] | 3.42 ± 0.13 | 2.58 ± 0.14 | 3.26 ± 0.072 | 2.84 ± 0.14
3 | FTIRGFKQKLNELLKCK [MTW1] | 3.05 ± 0.059 | 2.92 ± 0.073 | 2.93 ± 0.064 | 3.17 ± 0.046
4 | FTNELKAELDRYKRENQ [SEM1] | 3.09 ± 0.16 | 3.38 ± 0.14 | 2.98 ± 0.11 | 3.41 ± 0.24
5 | FVAATTNAGYTIELAGG [FAS1] | 2.82 ± 0.063 | 2.97 ± 0.059 | 2.9 ± 0.11 | 2.68 ± 0.062
6 | FVCLSCSHIFTSDQKNK [RPB9] | 2.43 ± 0.082 | 2.28 ± 0.093 | 2.04 ± 0.11 | 2.55 ± 0.066
7 | FVHYGEIKNDFIMVKGC [RPL3] | 2.06 ± 0.094 | 2.14 ± 0.067 | 2.1 ± 0.1 | 2.38 ± 0.076
8 | FVRGDSKIFRFQNSKSA [RPL24A] | 2.31 ± 0.053 | 2.63 ± 0.057 | 2.31 ± 0.059 | 2.43 ± 0.051
9 | FVSRPDRTMLAPMDFAI [FAS1] | 2.68 ± 0.12 | 2.82 ± 0.11 | 2.63 ± 0.11 | 2.68 ± 0.11
10 | FVYNKVNETEAILYTKP [YGR119C/NUP57] | 2.76 ± 0.084 | 3.06 ± 0.072 | 2.74 ± 0.056 | 2.97 ± 0.07
11 | FYLMVSSLSFGPENALN [YJL039C/NUP192] | 1.68 ± 0.048 | 1.37 ± 0.047 | 1.39 ± 0.12 | 1.31 ± 0.051
12 | FYMKKDAVEGVSECIIL [RPO31] |  | 3.07 ± 0.29 | 2.86 ± 0.14 | 
13 | GAAANNNDQKRQQAYKT [YJL041W/NSP1] | 3.06 ± 0.063 | 3.02 ± 0.056 | 3.09 ± 0.042 | 3.22 ± 0.066
14 | GAAFKVISNLVPKLESS [YJL039C/NUP192] | 2.86 ± 0.16 | 2.59 ± 0.11 | 2.58 ± 0.24 | 2.18 ± 0.12
15 | GAALKDIEIVRVNKNAP [FAS2] | 3.09 ± 0.092 | 3.24 ± 0.12 | 3.21 ± 0.089 | 3.31 ± 0.084
16 | GAIIGWTRGTGLMSANN [FAS2] | 2.89 ± 0.087 | 2.83 ± 0.083 | 3.08 ± 0.091 | 2.78 ± 0.29
17 | GALVDRTQPWSIMPDLY [RPS0A] | 2.71 ± 0.09 | 2.82 ± 0.091 | 2.87 ± 0.062 | 3.11 ± 0.032
18 | GASGEERLMSRPFGVAL [PUP2] | 3.36 ± 0.14 | 3.24 ± 0.079 | 2.93 ± 0.073 | 3.13 ± 0.05
19 | GAVSLNPSITRLEEESS [RRP4] | 3 ± 0.2 | 3.03 ± 0.14 | 3.07 ± 0.1 | 2.35 ± 0.08
20 | GCLVKREDLNKAEYVDQ [RPO31] |  | 3.13 ± 0.21 |  | 
21 | GCYFEEKRYDDKLLDFI [CSN12] | 3.34 ± 0.06 | 2.92 ± 0.098 | 3.04 ± 0.066 | 3.04 ± 0.077
22 | GDKDTRADIVRNIILEA [ISW2] | 2.1 ± 0.1 | 2.41 ± 0.06 | 2.09 ± 0.099 | 2.56 ± 0.11
23 | GDLLNAEVQSLFQDGSA [RRP4] | 2.18 ± 0.096 | 2.74 ± 0.13 | 2.94 ± 0.068 | 2.37 ± 0.096
24 | GDMTNSDAQSNLGSNVR [REC8] | 2.92 ± 0.28 | 3.52 ± 0.15 | 2.87 ± 0.17 | 3.25 ± 0.096
25 | GDNTSDVDMEDRNLTEF [RRI1] |  | 3.08 ± 0.13 | 3.27 ± 0.18 | 3.19 ± 0.058
26 | GDPFDYKAQADTFYMNV [RPB3] | 3.4 ± 0.1 | 3.44 ± 0.1 | 3.33 ± 0.063 | 3.36 ± 0.083
27 | GDTIELAIIGDENPDLL [PRE8] | 3.56 ± 0.22 | 3.11 ± 0.17 |  | 

Row | Sequence | protein stability index (doa10∆) | protein stability index (pdr5∆) | protein stability index (san1∆) | protein stability index (ubr1∆)
28 | GEHISAIVPGQSISGTL [SWP82] | 3.41 ± 0.15 | 3.05 ± 0.13 | 2.97 ± 0.17 | 
29 | GELVLDIEVPDVNALKF [SNF12] | 3.06 ± 0.22 | 3.55 ± 0.12 | 2.77 ± 0.077 | 3.15 ± 0.11
30 | GETMWVPIKSSKSGRIF [RPN13] | 2.3 ± 0.11 | 2.6 ± 0.15 | 2.81 ± 0.068 | 
31 | GETRMKMLNEFVKKTSE [SMC2] | 3.28 ± 0.1 | 3 ± 0.092 | 2.91 ± 0.068 | 3.26 ± 0.082
32 | GFDIQKSCEPVSISTSV [SIR4] | 1.36 ± 0.091 | 1.73 ± 0.13 | 1.51 ± 0.27 | 1.56 ± 0.07
33 | GFGRKGKAKGDIPGVRF [RPS23A] | 3.19 ± 0.14 | 3.23 ± 0.13 | 3.42 ± 0.052 | 3.22 ± 0.094
34 | GFSTGIGDTIADGPTMR [RPO21] | 2.3 ± 0.13 | 3.15 ± 0.17 | 3.03 ± 0.094 | 2.99 ± 0.15
35 | GGAKSRGVRPYKHIDAS [RPS19A] | 3.12 ± 0.11 | 3.38 ± 0.14 | 2.93 ± 0.082 | 2.98 ± 0.12
36 | GGDTCSSDGALCMDSSY [POP1] | 2.24 ± 0.054 | 2.54 ± 0.051 | 1.83 ± 0.082 | 2.27 ± 0.036
37 | GGDWERRNRYKTYYGIH [RPN7] | 1.24 ± 0.049 | 1.4 ± 0.074 | 1.29 ± 0.13 | 1.18 ± 0.044
38 | GGFTNLTSQAPQTTQMF [YDL088C/ASM4] | 3.35 ± 0.12 | 3.09 ± 0.091 | 3.38 ± 0.077 | 3.08 ± 0.068
39 | GGGHVSQVYAIRQAIAK [RPS16A] | 2.63 ± 0.05 | 2.85 ± 0.045 | 2.75 ± 0.053 | 2.62 ± 0.043
40 | GGIETILEHTLFKGTGF [PRP8] | 3.3 ± 0.22 | 3.28 ± 0.21 | 3.21 ± 0.14 | 3.47 ± 0.13
41 | GGKIINKLGNDPSLNLK [BRR2] | 2.27 ± 0.059 | 1.76 ± 0.073 | 1.91 ± 0.072 | 2.16 ± 0.057
42 | GGLRPFGVSFIYAGYDD [PRE9] | 2.44 ± 0.08 | 2.52 ± 0.075 | 2.26 ± 0.11 | 2.27 ± 0.083
43 | GGLSGEESIKIYPLIKP [UBP6] | 2.48 ± 0.12 | 2.68 ± 0.076 | 1.88 ± 0.15 | 2.16 ± 0.09
44 | GGTSDMNYLLDNKINEI [CSI1] | 2.85 ± 0.11 | 2.87 ± 0.087 | 3.17 ± 0.059 | 3.25 ± 0.078
45 | GHDADDGYQLFHAEPSG [PUP2] | 3.37 ± 0.19 | 2.97 ± 0.18 | 3.42 ± 0.079 | 3.1 ± 0.14
46 | GIIITDQSNVQYYLSVL [BRR2] | 3.32 ± 0.2 | 3.44 ± 0.19 | 3.07 ± 0.11 | 3.01 ± 0.13
47 | GILDEIMFNHARIIRSE [RGR1] | 2.75 ± 0.061 | 2.98 ± 0.071 | 3.08 ± 0.069 | 3.07 ± 0.032
48 | GILGNKAQAKMDKRAKT [RPL8B] | 3.58 ± 0.12 | 3.48 ± 0.15 | 3.4 ± 0.058 | 3.63 ± 0.079
49 | GINKIPPKPRKVLQLLR [RPL7A] | 3.06 ± 0.087 | 3.15 ± 0.11 | 3.22 ± 0.061 | 3.15 ± 0.069
50 | GINKKKLLAISKFNNAD [RPC31] |  | 1.93 ± 0.18 | 2.97 ± 0.23 | 
51 | GIREKRAREKAEAEAEK [RPL13A] |  | 3.5 ± 0.25 |  | 
52 | GIRWELISRLCPNSTGA [RPT1] | 2.04 ± 0.047 | 2.25 ± 0.05 | 2.12 ± 0.076 | 2.19 ± 0.038
53 | GIVDELAYAVLGIALIA [RPN1] | 1.76 ± 0.1 | 1.42 ± 0.1 | 1.48 ± 0.16 | 1.17 ± 0.062
54 | GIWNDLGSGSNVDVCVM [PUP1] | 2.69 ± 0.27 |  |  | 
